# Reference: patent US20260167721A1 (ABLEXIS, published 2026)
# B1: CD3 × CD33-BspAb45 (bispecific antibody)
# chain 1: EVQLVESGGGLVQPGGSLRLSCAASGFTFSRYSMNWVRQAPGKCLEWVSYISSSSSSIYYADSVKGRFTISRDNAKNSLYLQMNSLRDEDTAVYYCARDRRATLDYWGQGTLVTVSSGGGGSGGGGSGGGGSGGGGSNFMLTQPHSVSESPGKTVTISCTRSSGSIASNYVQWYQQRPGSSPTTVIYEDNQRPSGVPDRFSGSIDSSSNSASLTISGLKTEDEADYYCQSYDSSNHVFGCGTKLTVLDKTHTCPPCPAPEFEGGPSVFLFPPKPKDTLMISRTPEVTCVVVDVSHEDPEVKFNWYVDGVEVHNAKTKPREEQYNSTYRVVSVLTVLHQDWLNGKEYKCKVSNKALPASIEKTISKAKGQPREPQVYTLPPCREEMTKNQVSLWCLVKGFYPSDIAVEWESNGQPENNYKTTPPVLDSDGSFFLYSKLTVDKSRWQQGNVFSCSVMHEALHNHYTQKSLSLSPGK
# chain 2: EVQLVQSGAEVKKPGSSVKVSCKASGYTITDSNIHWVRQAPGQSLEWIGYIYPYNGGTDYNQKFKNRATLTVDNPTNTAYMELSSLRSEDTAFYYCVNGNPWLAYWGQGTLVTVSSASTKGPSVFPLAPSSKSTSGGTAALGCLVKDYFPEPVTVSWNSGALTSGVHTFPAVLQSSGLYSLSSVVTVPSSSLGTQTYICNVNHKPSNTKVDKRVEPKSCDKTHTCPPCPAPEFEGGPSVFLFPPKPKDTLMISRTPEVTCVVVDVSHEDPEVKFNWYVDGVEVHNAKTKPREEQYNSTYRVVSVLTVLHQDWLNGKEYKCKVSNKALPASIEKTISKAKGQPREPQVCTLPPSREEMTKNQVSLSCAVKGFYPSDIAVEWESNGQPENNYKTTPPVLDSDGSFFLVSKLTVDKSRWQQGNVFSCSVMHEALHNRFTQKSLSLSPGK
# chain 3: DIQLTQSPSTLSASVGDRVTITCRASESLDNYGIRFLTWFQQKPGKAPKLLMYAASNQGSGVPSRFSGSGSGTEFTLTISSLQPDDFATYYCQQTKEVPWSFGQGTKVEVKRTVAAPSVFIFPPSDEQLKSGTASVVCLLNNFYPREAKVQWKVDNALQSGNSQESVTEQDSKDSTYSLSSTLTLSKADYEKHKVYACEVTHQGLSSPVTKSFNRGEC
# Experiments:
# [1] = target: T1, CD3 on human donor PBMC / Pan T effector cells (human, UniProt P07766 23-207; P09693 23-182; P04234 22-171; P20963 22-164); experiment: cell-based or functional assay
# T1 sequence (P07766 23-207, chain 1 of 4): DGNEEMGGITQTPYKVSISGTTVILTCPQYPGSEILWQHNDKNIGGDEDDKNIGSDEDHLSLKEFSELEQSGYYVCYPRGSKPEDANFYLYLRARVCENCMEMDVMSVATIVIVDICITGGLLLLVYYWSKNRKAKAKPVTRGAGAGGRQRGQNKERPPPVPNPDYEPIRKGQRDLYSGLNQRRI
# T1 sequence (P09693 23-182, chain 2 of 4): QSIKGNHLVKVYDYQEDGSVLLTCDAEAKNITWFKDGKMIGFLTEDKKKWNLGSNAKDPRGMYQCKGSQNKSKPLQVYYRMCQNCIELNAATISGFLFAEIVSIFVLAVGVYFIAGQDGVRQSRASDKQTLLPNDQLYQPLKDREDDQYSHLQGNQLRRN
# T1 sequence (P04234 22-171, chain 3 of 4): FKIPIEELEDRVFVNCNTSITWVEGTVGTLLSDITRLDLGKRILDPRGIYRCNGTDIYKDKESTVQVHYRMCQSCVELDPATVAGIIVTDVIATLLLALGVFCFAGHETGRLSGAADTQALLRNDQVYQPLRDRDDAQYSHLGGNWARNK
# T1 sequence (P20963 22-164, chain 4 of 4): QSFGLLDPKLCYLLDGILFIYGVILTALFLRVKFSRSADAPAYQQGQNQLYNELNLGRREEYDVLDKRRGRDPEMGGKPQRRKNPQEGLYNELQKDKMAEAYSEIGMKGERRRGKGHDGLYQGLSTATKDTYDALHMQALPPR
# [2] = target: T1, CD3 on human donor PBMC / Pan T …; experiment: cell-based or functional assay; remark: listed apart in the source
binder,measurement,setting,value
B1,Cytokine Release Assay (IL2) Donor 0 EC50,[1],0.0539 nM
same,Cytokine Release Assay (IL2) Donor 0 gMFI max,[1],50900 gMFI
same,Cytokine Release Assay (IL2) Donor 1 EC50,[1],0.0869 nM
same,Cytokine Release Assay (IL2) Donor 1 gMFI max,[1],22200 gMFI
same,Cytokine Release Assay (IL2) Donor 2 EC50,[1],0.0204 nM
same,Cytokine Release Assay (IL2) Donor 2 gMFI max,[1],26200 gMFI
same,Cytokine Release Assay (IL2) Donor 3 EC50,[1],0.0205 nM
same,Cytokine Release Assay (IL2) Donor 3 gMFI max,[1],67900 gMFI
same,Cytokine Release Assay (TNFα) Donor 0 EC50,[2],0.0919 nM
same,Cytokine Release Assay (TNFα) Donor 0 gMFI max,[2],71300 gMFI
same,Cytokine Release Assay (TNFα) Donor 1 gMFI max,[2],4850 gMFI
same,Cytokine Release Assay (TNFα) Donor 2 EC50,[2],0.0334 nM
same,Cytokine Release Assay (TNFα) Donor 2 gMFI max,[2],12100 gMFI
same,Cytokine Release Assay (TNFα) Donor 3 EC50,[2],0.0216 nM
same,Cytokine Release Assay (TNFα) Donor 3 gMFI max,[2],31800 gMFI
